Values quoted from earlier work in patent publication US20260265800A1, “NEW FUCOSYLTRANSFERASES FOR IN VIVO SYNTHESIS OF LNFP-III” (DSM IP Assets B.V., priority 2022, published 2026).

System: β-galactosidase activity
Details: LacZ assay, cited from earlier work; for % Activity relative to PglpF: PglpF as positive reference, a range indicates results from multiple assays

Row | Molecule | % Activity relative to PglpF | Strength
1 | PglpF_SD4: promoter sequence, SEQ ID NO: 23 (nucleic acid) DNA: ATGCGCAAATGCGGCACGCCTTGCAGATTACGGTTTGCCACACTTTTCATCCTTCTCCTGGTGACATAATCCACATCAATCGAAAATGTTAATAAATTTGTTGCGCGAATGATCTAACAAACATGCATCATGTACAATCAGATGGAATAAATGGCGCGATAACGCTCATTTTATGACGAGGCACACACATTTTAAGTTCGATATTTCTCGTTTTTGCTCGTTAACGATAAGTTTACAGCATGCCTACAAGCATCGTGGAGGTCCGTGACTTTCACGCATACAACAAACATTAACCAACTAGGAAACAGCT | 140-161% | high (A regulatory element with an activity above 10,000 MU is considered strong)
2 | PglpF_SD9: promoter sequence, SEQ ID NO: 33 (nucleic acid) DNA: ATGCGCAAATGCGGCACGCCTTGCAGATTACGGTTTGCCACACTTTTCATCCTTCTCCTGGTGACATAATCCACATCAATCGAAAATGTTAATAAATTTGTTGCGCGAATGATCTAACAAACATGCATCATGTACAATCAGATGGAATAAATGGCGCGATAACGCTCATTTTATGACGAGGCACACACATTTTAAGTTCGATATTTCTCGTTTTTGCTCGTTAACGATAAGTTTACAGCATGCCTACAAGCATCGTGGAGGTCCGTGACTTTCACGCATACAACAAACATTAACCAAAGGAAAAACAGCT | 73-93% | middle (what is in between has intermediate strength)
3 | PglpF_SD8: promoter sequence, SEQ ID NO: 31 (nucleic acid) DNA: ATGCGCAAATGCGGCACGCCTTGCAGATTACGGTTTGCCACACTTTTCATCCTTCTCCTGGTGACATAATCCACATCAATCGAAAATGTTAATAAATTTGTTGCGCGAATGATCTAACAAACATGCATCATGTACAATCAGATGGAATAAATGGCGCGATAACGCTCATTTTATGACGAGGCACACACATTTTAAGTTCGATATTTCTCGTTTTTGCTCGTTAACGATAAGTTTACAGCATGCCTACAAGCATCGTGGAGGTCCGTGACTTTCACGCATACAACAAACATTAACCAAGAGAAAAACAGCT | 81-82% | high (A regulatory element with an activity above 10,000 MU is considered strong)
4 | PglpF_SD10: promoter sequence, SEQ ID NO: 29 (nucleic acid) DNA: ATGCGCAAATGCGGCACGCCTTGCAGATTACGGTTTGCCACACTTTTCATCCTTCTCCTGGTGACATAATCCACATCAATCGAAAATGTTAATAAATTTGTTGCGCGAATGATCTAACAAACATGCATCATGTACAATCAGATGGAATAAATGGCGCGATAACGCTCATTTTATGACGAGGCACACACATTTTAAGTTCGATATTTCTCGTTTTTGCTCGTTAACGATAAGTTTACAGCATGCCTACAAGCATCGTGGAGGTCCGTGACTTTCACGCATACAACAAACATTAACCAACTGAGAAACAGCT | 88-96% | high (A regulatory element with an activity above 10,000 MU is considered strong)
5 | PglpF_SD6: promoter sequence, SEQ ID NO: 35 (nucleic acid) DNA: ATGCGCAAATGCGGCACGCCTTGCAGATTACGGTTTGCCACACTTTTCATCCTTCTCCTGGTGACATAATCCACATCAATCGAAAATGTTAATAAATTTGTTGCGCGAATGATCTAACAAACATGCATCATGTACAATCAGATGGAATAAATGGCGCGATAACGCTCATTTTATGACGAGGCACACACATTTTAAGTTCGATATTTCTCGTTTTTGCTCGTTAACGATAAGTTTACAGCATGCCTACAAGCATCGTGGAGGTCCGTGACTTTCACGCATACAACAAACATTAACCAAGAGCTAAACAGCT | 46-47% | middle (what is in between has intermediate strength)
6 | PglpF_SD5: promoter sequence, SEQ ID NO: 30 (nucleic acid) DNA: ATGCGCAAATGCGGCACGCCTTGCAGATTACGGTTTGCCACACTTTTCATCCTTCTCCTGGTGACATAATCCACATCAATCGAAAATGTTAATAAATTTGTTGCGCGAATGATCTAACAAACATGCATCATGTACAATCAGATGGAATAAATGGCGCGATAACGCTCATTTTATGACGAGGCACACACATTTTAAGTTCGATATTTCTCGTTTTTGCTCGTTAACGATAAGTTTACAGCATGCCTACAAGCATCGTGGAGGTCCGTGACTTTCACGCATACAACAAACATTAACCAACCGAGAAACAGCT | 82-91% | high (A regulatory element with an activity above 10,000 MU is considered strong)
7 | PglpA_70UTR: promoter sequence, SEQ ID NO: 26 (nucleic acid) DNA: GAAAACATTCATAAATTAAATGTGAATTGCCGCACACATTATTAAATAAGATTTACAAAATGTTCAAAATGACGCATGAAATCACGTTTCACTTTCGAATTATGAGCGAATATGCGCGATGCCTACAAGCATCGTGGAGGTCCGTGACTTTCACGCATACAACAAACATTAACCAAGGAGGAAACAGCT | 102-179% | high (A regulatory element with an activity above 10,000 MU is considered strong)
8 | PglpF_SD7: promoter sequence, SEQ ID NO: 34 (nucleic acid) DNA: GCGGCACGCCTTGCAGATTACGGTTTGCCACACTTTTCATCCTTCTCCTGGTGACATAATCCACATCAATCGAAAATGTTAATAAATTTGTTGCGCGAATGATCTAACAAACATGCATCATGTACAATCAGATGGAATAAATGGCGCGATAACGCTCATTTTATGACGAGGCACACACATTTTAAGTTCGATATTTCTCGTTTTTGCTCGTTAACGATAAGTTTACAGCATGCCTACAAGCATCGTGGAGGTCCGTGACTTTCACGCATACAACAAACATTAACCAAGAGCAAAACAGCT | 47-57% | middle (what is in between has intermediate strength)
9 | PmglB_70UTR_SD9: promoter sequence, SEQ ID NO: 20 (nucleic acid) DNA: TGCGTCGCCATTCTGTCGCAACACGCCAGAATGCGGCGGCGATCACTAACTCAACAAATCAGGCGATGTAACCGCTTTCAATCTGTGAGTGATTTCACAGTATCTTAACAATGTGATAGCTATGATTGCACCGTGCCTACAAGCATCGTGGAGGTCCGTGACTTTCACGCATACAACAAACATTAACCAAAGGAAAAACAGCT | 180-226% | high (A regulatory element with an activity above 10,000 MU is considered strong)
10 | PmglB_70UTR_SD7: promoter sequence, SEQ ID NO: 24 (nucleic acid) DNA: TGCGTCGCCATTCTGTCGCAACACGCCAGAATGCGGCGGCGATCACTAACTCAACAAATCAGGCGATGTAACCGCTTTCAATCTGTGAGTGATTTCACAGTATCTTAACAATGTGATAGCTATGATTGCACCGTGCCTACAAGCATCGTGGAGGTCCGTGACTTTCACGCATACAACAAACATTAACCAAGAGCAAAACAGCT | 127-173% | high (A regulatory element with an activity above 10,000 MU is considered strong)
11 | PmglB_70UTR_SD4: promoter sequence, SEQ ID NO: 21 (nucleic acid) DNA: TGCGTCGCCATTCTGTCGCAACACGCCAGAATGCGGCGGCGATCACTAACTCAACAAATCAGGCGATGTAACCGCTTTCAATCTGTGAGTGATTTCACAGTATCTTAACAATGTGATAGCTATGATTGCACCGTGCCTACAAGCATCGTGGAGGTCCGTGACTTTCACGCATACAACAAACATTAACCAACTAGGAAACAGCT | 153%-353% | high (A regulatory element with an activity above 10,000 MU is considered strong)
12 | PmglB_70UTR: promoter sequence, SEQ ID NO: 25 (nucleic acid) DNA: TGCGTCGCCATTCTGTCGCAACACGCCAGAATGCGGCGGCGATCACTAACTCAACAAATCAGGCGATGTAACCGCTTTCAATCTGTGAGTGATTTCACAGTATCTTAACAATGTGATAGCTATGATTGCACCGTGCCTACAAGCATCGTGGAGGTCCGTGACTTTCACGCATACAACAAACATTAACCAAGGAGGAAACAGCT | 124-234% | high (A regulatory element with an activity above 10,000 MU is considered strong)
13 | PmglB_70UTR_SD5: promoter sequence, SEQ ID NO: 22 (nucleic acid) DNA: TGCGTCGCCATTCTGTCGCAACACGCCAGAATGCGGCGGCGATCACTAACTCAACAAATCAGGCGATGTAACCGCTTTCAATCTGTGAGTGATTTCACAGTATCTTAACAATGTGATAGCTATGATTGCACCGTGCCTACAAGCATCGTGGAGGTCCGTGACTTTCACGCATACAACAAACATTAACCAACCGAGAAACAGCT | 146-152% | high (A regulatory element with an activity above 10,000 MU is considered strong)
14 | PmglB_16UTR: promoter sequence, SEQ ID NO: 32 (nucleic acid) DNA: TGCGTCGCCATTCTGTCGCAACACGCCAGAATGCGGCGGCGATCACTAACTCAACAAATCAGGCGATGTAACCGCTTTCAATCTGTGAGTGATTTCACAGTATCTTAACAATGTGATAGCTATGATTGCACCGTTTTAACGTTGTAACCCGTATGTAACAGTGAATAATCACTTTTGCCGAGGTAACAGCGTCATAACAACAATTAAAGCCGTTTTCTGGAGCGTTACCGGGCATGGAAGAACGAATTTTAAAAAGTGAGCTTCGGCGTTCAGTAACACTTCATTAACTCTACTGCCCCGCCGAGCATTTATCTCAAGCACTACCCTGCATAAGCAAGGAGGAAACAGCT | 78-171% | high (A regulatory element with an activity above 10,000 MU is considered strong)
15 | PglpT_70UTR: promoter sequence, SEQ ID NO: 27 (nucleic acid) DNA: CCATTTAGCCATAGTAAAAACATGAATTGTTTGATTTCGCGCATATTCGCTCATAATTCGAAAGTGAAACGTGATTTCATGCGTCATTTTGAACATTTTGTAAATCTTATTTAATAATGTGTGCGGCAATTCACATTTAATTTATGAATGTTTTCTTAACATCGCGGCATGCCTACAAGCATCGTGGAGGTCCGTGACTTTCACGCATACAACAAACATTAACCAAGGAGGAAACAGCT | 102-240% | high (A regulatory element with an activity above 10,000 MU is considered strong)
